Starred links: 1 amine or outer side, 2 acyl side, 3 side chain; linkers in the order of their positions; H or OH if unused. Non-standard residues stand in square brackets, D forms with d. Groups on a side chain read outwards from the residue. No end group written: not given here. *: point of attachment. C20 diacid = O=C(O)CCCCCCCCCCCCCCCCCCC(=O)*; C18 diacid = O=C(O)CCCCCCCCCCCCCCCCC(=O)*; γGlu = O=C(O)[C@H](CCC(=O)[*:2])N[*:1]; αMeF = C[C@](N)(Cc1ccccc1)C(=O)O; AEEA = NCCOCCOCC(=O)O; Aib = CC(C)(N)C(=O)O
Columns and labels:
Test in all cases: cell-based or functional assay
human glucagon receptor = human glucagon receptor (human, UniProt P47871 26-477)
Sequence of human glucagon receptor (P47871 26-477): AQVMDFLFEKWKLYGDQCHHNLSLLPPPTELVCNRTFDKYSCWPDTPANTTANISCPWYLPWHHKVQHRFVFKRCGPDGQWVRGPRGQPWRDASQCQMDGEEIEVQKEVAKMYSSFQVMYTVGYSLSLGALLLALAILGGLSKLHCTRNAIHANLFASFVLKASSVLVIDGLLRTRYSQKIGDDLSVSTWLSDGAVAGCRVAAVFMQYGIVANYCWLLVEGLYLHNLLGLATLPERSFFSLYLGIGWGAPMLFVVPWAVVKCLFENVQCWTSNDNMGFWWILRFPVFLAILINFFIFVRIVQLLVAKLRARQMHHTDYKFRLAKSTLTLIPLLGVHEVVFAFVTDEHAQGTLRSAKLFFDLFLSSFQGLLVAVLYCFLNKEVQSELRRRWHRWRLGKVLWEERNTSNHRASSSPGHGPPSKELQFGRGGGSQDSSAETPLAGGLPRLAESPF

[1] = target: human glucagon receptor (hGCGR) (human, UniProt P47871 26-477)
Sequence of human glucagon receptor (hGCGR) (P47871 26-477): as above

[2] = target: human GLP-1 receptor (hGLP-1R) (human, UniProt P43220 24-463)
human GLP-1 receptor = human GLP-1 receptor (human, UniProt P43220 24-463)

hGluc-R EC50 (pM), cAMP (human glucagon receptor) [pM] | hGluc-R EC50 (pM) [1] [pM] | hGLP-1R EC50 (pM) [2] [pM] | hGLP-1R EC50 (pM), cAMP (human GLP-1 receptor) [pM] | Binder
407 | – | – | – | H[Aib]HGS[αMeF]TSDVSK[αMeF]LDSRAAK([AEEA-AEEA-γGlu-γGlu-C20 diacid])D[αMeF]VQ[Aib]IANTGG-NH2 (N-terminus assumed; SMILES CC[C@H](C)[C@H](NC(=O)C(C)(C)NC(=O)[C@H](CCC(N)=O)NC(=O)[C@@H](NC(=O)[C@](C)(Cc1ccccc1)NC(=O)[C@H](CC(=O)O)NC(=O)[C@H](CCCCNC(=O)COCCOCCNC(=O)COCCOCCNC(=O)CC[C@H](NC(=O)CC[C@H](NC(=O)CCCCCCCCCCCCCCCCCCC(=O)O)C(=O)O)C(=O)O)NC(=O)[C@H](C)NC(=O)[C@H](C)NC(=O)[C@H](CCCNC(=N)N)NC(=O)[C@H](CO)NC(=O)[C@H](CC(=O)O)NC(=O)[C@H](CC(C)C)NC(=O)[C@](C)(Cc1ccccc1)NC(=O)[C@H](CCCCN)NC(=O)[C@H](CO)NC(=O)[C@@H](NC(=O)[C@H](CC(=O)O)NC(=O)[C@H](CO)NC(=O)[C@@H](NC(=O)[C@](C)(Cc1ccccc1)NC(=O)[C@H](CO)NC(=O)CNC(=O)[C@H](Cc1c[nH]cn1)NC(=O)C(C)(C)NC(=O)[C@@H](N)Cc1c[nH]cn1)[C@@H](C)O)C(C)C)C(C)C)C(=O)N[C@@H](C)C(=O)N[C@@H](CC(N)=O)C(=O)N[C@H](C(=O)NCC(=O)NCC(N)=O)[C@@H](C)O) [Peptide 233]
– | 1630 | 24.6 | – | H[Aib]QGTFTSDVSK[αMeF]LDSK([AEEA-AEEA-γGlu-C18 diacid])RAQDFVRWLASR-OH (N-terminus assumed; SMILES CC(C)C[C@H](NC(=O)[C@H](Cc1c[nH]c2ccccc12)NC(=O)[C@H](CCCNC(=N)N)NC(=O)[C@@H](NC(=O)[C@H](Cc1ccccc1)NC(=O)[C@H](CC(=O)O)NC(=O)[C@H](CCC(N)=O)NC(=O)[C@H](C)NC(=O)[C@H](CCCNC(=N)N)NC(=O)[C@H](CCCCNC(=O)COCCOCCNC(=O)COCCOCCNC(=O)CC[C@H](NC(=O)CCCCCCCCCCCCCCCCC(=O)O)C(=O)O)NC(=O)[C@H](CO)NC(=O)[C@H](CC(=O)O)NC(=O)[C@H](CC(C)C)NC(=O)[C@](C)(Cc1ccccc1)NC(=O)[C@H](CCCCN)NC(=O)[C@H](CO)NC(=O)[C@@H](NC(=O)[C@H](CC(=O)O)NC(=O)[C@H](CO)NC(=O)[C@@H](NC(=O)[C@H](Cc1ccccc1)NC(=O)[C@@H](NC(=O)CNC(=O)[C@H](CCC(N)=O)NC(=O)C(C)(C)NC(=O)[C@@H](N)Cc1c[nH]cn1)[C@@H](C)O)[C@@H](C)O)C(C)C)C(C)C)C(=O)N[C@@H](C)C(=O)N[C@@H](CO)C(=O)N[C@@H](CCCNC(=N)N)C(=O)O) [Peptide 146]
93.7 | – | – | 156 | H[Aib]HGS[αMeF]TSDVSK[αMeF]LDSQAAK([AEEA-AEEA-γGlu-γGlu-C18 diacid])DFVEWIANT-NH2 (N-terminus assumed; SMILES CC[C@H](C)[C@H](NC(=O)[C@H](Cc1c[nH]c2ccccc12)NC(=O)[C@H](CCC(=O)O)NC(=O)[C@@H](NC(=O)[C@H](Cc1ccccc1)NC(=O)[C@H](CC(=O)O)NC(=O)[C@H](CCCCNC(=O)COCCOCCNC(=O)COCCOCCNC(=O)CC[C@H](NC(=O)CC[C@H](NC(=O)CCCCCCCCCCCCCCCCC(=O)O)C(=O)O)C(=O)O)NC(=O)[C@H](C)NC(=O)[C@H](C)NC(=O)[C@H](CCC(N)=O)NC(=O)[C@H](CO)NC(=O)[C@H](CC(=O)O)NC(=O)[C@H](CC(C)C)NC(=O)[C@](C)(Cc1ccccc1)NC(=O)[C@H](CCCCN)NC(=O)[C@H](CO)NC(=O)[C@@H](NC(=O)[C@H](CC(=O)O)NC(=O)[C@H](CO)NC(=O)[C@@H](NC(=O)[C@](C)(Cc1ccccc1)NC(=O)[C@H](CO)NC(=O)CNC(=O)[C@H](Cc1c[nH]cn1)NC(=O)C(C)(C)NC(=O)[C@@H](N)Cc1c[nH]cn1)[C@@H](C)O)C(C)C)C(C)C)C(=O)N[C@@H](C)C(=O)N[C@@H](CC(N)=O)C(=O)N[C@H](C(N)=O)[C@@H](C)O) [Peptide 210]
– | 4590 | 22.6 | – | H[Aib]QGTFTSDVSK[αMeF]LDSK([AEEA-AEEA-γGlu-C18 diacid])RAQDFVRWLASRGI-OH (N-terminus assumed; SMILES CC[C@H](C)[C@H](NC(=O)CNC(=O)[C@H](CCCNC(=N)N)NC(=O)[C@H](CO)NC(=O)[C@H](C)NC(=O)[C@H](CC(C)C)NC(=O)[C@H](Cc1c[nH]c2ccccc12)NC(=O)[C@H](CCCNC(=N)N)NC(=O)[C@@H](NC(=O)[C@H](Cc1ccccc1)NC(=O)[C@H](CC(=O)O)NC(=O)[C@H](CCC(N)=O)NC(=O)[C@H](C)NC(=O)[C@H](CCCNC(=N)N)NC(=O)[C@H](CCCCNC(=O)COCCOCCNC(=O)COCCOCCNC(=O)CC[C@H](NC(=O)CCCCCCCCCCCCCCCCC(=O)O)C(=O)O)NC(=O)[C@H](CO)NC(=O)[C@H](CC(=O)O)NC(=O)[C@H](CC(C)C)NC(=O)[C@](C)(Cc1ccccc1)NC(=O)[C@H](CCCCN)NC(=O)[C@H](CO)NC(=O)[C@@H](NC(=O)[C@H](CC(=O)O)NC(=O)[C@H](CO)NC(=O)[C@@H](NC(=O)[C@H](Cc1ccccc1)NC(=O)[C@@H](NC(=O)CNC(=O)[C@H](CCC(N)=O)NC(=O)C(C)(C)NC(=O)[C@@H](N)Cc1c[nH]cn1)[C@@H](C)O)[C@@H](C)O)C(C)C)C(C)C)C(=O)O) [Peptide 145]
– | 43.5 | 15.3 | – | H[Aib]QGTFTSDVSK[αMeF]LDSK([AEEA-AEEA-γGlu-C18 diacid])RAQDFVRWLEA[Aib]G-OH (N-terminus assumed; SMILES CC(C)C[C@H](NC(=O)[C@H](Cc1c[nH]c2ccccc12)NC(=O)[C@H](CCCNC(=N)N)NC(=O)[C@@H](NC(=O)[C@H](Cc1ccccc1)NC(=O)[C@H](CC(=O)O)NC(=O)[C@H](CCC(N)=O)NC(=O)[C@H](C)NC(=O)[C@H](CCCNC(=N)N)NC(=O)[C@H](CCCCNC(=O)COCCOCCNC(=O)COCCOCCNC(=O)CC[C@H](NC(=O)CCCCCCCCCCCCCCCCC(=O)O)C(=O)O)NC(=O)[C@H](CO)NC(=O)[C@H](CC(=O)O)NC(=O)[C@H](CC(C)C)NC(=O)[C@](C)(Cc1ccccc1)NC(=O)[C@H](CCCCN)NC(=O)[C@H](CO)NC(=O)[C@@H](NC(=O)[C@H](CC(=O)O)NC(=O)[C@H](CO)NC(=O)[C@@H](NC(=O)[C@H](Cc1ccccc1)NC(=O)[C@@H](NC(=O)CNC(=O)[C@H](CCC(N)=O)NC(=O)C(C)(C)NC(=O)[C@@H](N)Cc1c[nH]cn1)[C@@H](C)O)[C@@H](C)O)C(C)C)C(C)C)C(=O)N[C@@H](CCC(=O)O)C(=O)N[C@@H](C)C(=O)NC(C)(C)C(=O)NCC(=O)O) [Peptide 147]
– | 568 | 40.2 | – | H[Aib]QGTFTSDVSK[αMeF]LDSK([AEEA-AEEA-γGlu-C18 diacid])RAQDFVRWIAE[Aib]G-OH (N-terminus assumed; SMILES CC[C@H](C)[C@H](NC(=O)[C@H](Cc1c[nH]c2ccccc12)NC(=O)[C@H](CCCNC(=N)N)NC(=O)[C@@H](NC(=O)[C@H](Cc1ccccc1)NC(=O)[C@H](CC(=O)O)NC(=O)[C@H](CCC(N)=O)NC(=O)[C@H](C)NC(=O)[C@H](CCCNC(=N)N)NC(=O)[C@H](CCCCNC(=O)COCCOCCNC(=O)COCCOCCNC(=O)CC[C@H](NC(=O)CCCCCCCCCCCCCCCCC(=O)O)C(=O)O)NC(=O)[C@H](CO)NC(=O)[C@H](CC(=O)O)NC(=O)[C@H](CC(C)C)NC(=O)[C@](C)(Cc1ccccc1)NC(=O)[C@H](CCCCN)NC(=O)[C@H](CO)NC(=O)[C@@H](NC(=O)[C@H](CC(=O)O)NC(=O)[C@H](CO)NC(=O)[C@@H](NC(=O)[C@H](Cc1ccccc1)NC(=O)[C@@H](NC(=O)CNC(=O)[C@H](CCC(N)=O)NC(=O)C(C)(C)NC(=O)[C@@H](N)Cc1c[nH]cn1)[C@@H](C)O)[C@@H](C)O)C(C)C)C(C)C)C(=O)N[C@@H](C)C(=O)N[C@@H](CCC(=O)O)C(=O)NC(C)(C)C(=O)NCC(=O)O) [Peptide 148]
– | 2650 | 8.71 | – | H[Aib]QGTFTSDVSK[αMeF]LDSK([AEEA-AEEA-γGlu-C18 diacid])RAQDFVRWVVE[Aib]G-OH (N-terminus assumed; SMILES CC(C)C[C@H](NC(=O)[C@](C)(Cc1ccccc1)NC(=O)[C@H](CCCCN)NC(=O)[C@H](CO)NC(=O)[C@@H](NC(=O)[C@H](CC(=O)O)NC(=O)[C@H](CO)NC(=O)[C@@H](NC(=O)[C@H](Cc1ccccc1)NC(=O)[C@@H](NC(=O)CNC(=O)[C@H](CCC(N)=O)NC(=O)C(C)(C)NC(=O)[C@@H](N)Cc1c[nH]cn1)[C@@H](C)O)[C@@H](C)O)C(C)C)C(=O)N[C@@H](CC(=O)O)C(=O)N[C@@H](CO)C(=O)N[C@@H](CCCCNC(=O)COCCOCCNC(=O)COCCOCCNC(=O)CC[C@H](NC(=O)CCCCCCCCCCCCCCCCC(=O)O)C(=O)O)C(=O)N[C@@H](CCCNC(=N)N)C(=O)N[C@@H](C)C(=O)N[C@@H](CCC(N)=O)C(=O)N[C@@H](CC(=O)O)C(=O)N[C@@H](Cc1ccccc1)C(=O)N[C@H](C(=O)N[C@@H](CCCNC(=N)N)C(=O)N[C@@H](Cc1c[nH]c2ccccc12)C(=O)N[C@H](C(=O)N[C@H](C(=O)N[C@@H](CCC(=O)O)C(=O)NC(C)(C)C(=O)NCC(=O)O)C(C)C)C(C)C)C(C)C) [Peptide 149]
